Data: patent US20200024330A1

Columns and labels:
Assay in all cases: cell-based or functional assay
[1] = target: HIV-1 Env of isolate 6535.3 (pseudovirus) (HIV-1 isolate 6535.3, subtype B)
[2] = target: HIV-1 Env of isolate 92UG037 (HIV-1)
[3] = target: HIV-1 Env of isolate 92WR020 (HIV-1)
[4] = target: HIV-1 Env of isolate 92WR024 (HIV-1)
[5] = target: HIV-1 Env of isolate 94UG103 (HIV-1)
[6] = target: HIV-1 Env of isolate APV-17 (pseudovirus) (HIV-1 isolate APV-17, subtype B)
[7] = target: HIV-1 Env of isolate MGRM-A-007 (clade A), on pseudovirus (HIV-1)
[8] = target: HIV-1 Env of isolate MGRM-A-008 (clade A), on pseudovirus (HIV-1)
[9] = target: HIV-1 Env of isolate MGRM-A-009 (clade A), on pseudovirus (HIV-1)
[10] = target: HIV-1 Env of isolate MGRM-AE-004 (CRF01_AE), on pseudovirus (HIV-1)
[11] = target: HIV-1 Env of isolate MGRM-AE-008 (CRF01_AE), on pseudovirus (HIV-1)
[12] = target: HIV-1 Env of isolate MGRM-AG-005 (CRF_AG), on pseudovirus (HIV-1)
[13] = target: HIV-1 Env of isolate MGRM-AG-009 (CRF_AG), on pseudovirus (HIV-1)
[14] = target: HIV-1 Env of isolate MGRM-C-009 (HIV-1)
[15] = target: HIV-1 Env of isolate MGRM-C-015 (HIV-1)
[16] = target: HIV-1 Env of isolate MGRM-D-018 (HIV-1)
[17] = target: HIV-1 Env of isolate MGRM-D-022 (HIV-1)
[18] = target: HIV-1 Env of isolate MGRM-D-028 (subtype D), on pseudovirus (HIV-1)
[19] = target: HIV-1 92RW021 envelope glycoprotein (Env) on pseudovirus (HIV-1)
[20] = target: HIV-1 92UG031 envelope glycoprotein (Env) (HIV-1)
[21] = target: HIV-1 93MW959 envelope glycoprotein (Env) on pseudovirus (HIV-1)
[22] = target: HIV-1 93UG077 envelope glycoprotein (Env) on pseudovirus (HIV-1)
[23] = target: HIV-1 Env of isolate MGRM-AE-001 (HIV-1)
[24] = target: HIV-1 Env of pseudovirus QH0692.42 (Acute), clade B (HIV-1)
[25] = target: HIV-1 MGRM-A-001 envelope glycoprotein (Env) (HIV-1)
[26] = target: HIV-1 MGRM-C-002 Env (HIV-1)
[27] = target: HIV-1 MGRM-C-013 Env (HIV-1)
[28] = target: HIV-1 JR-CSF Env I165A (HIV-1 (isolate JR-CSF)) (UniProt P20871)
[29] = target: HIV-1 JR-CSF Env N197A (HIV-1 (isolate JR-CSF)) (UniProt P20871)
[30] = target: HIV-1 JR-CSF Env R166A (HIV-1 (isolate JR-CSF)) (UniProt P20871)
[31] = target: HIV-1 MGRM-C-026 envelope glycoprotein (Env) on pseudovirus (HIV-1)
[32] = target: HIV-1 MGRM-C-028 envelope glycoprotein (Env) on pseudovirus (HIV-1)

Substance | IC50 (µg/mL) neutralization [1] [µg/mL] | neutralization IC50 [2] [µg/mL] | neutralization IC50 [3] [µg/mL] | neutralization IC50 [4] [µg/mL] | neutralization IC50 [5] [µg/mL] | IC50 (µg/mL) neutralization [6] [µg/mL] | IC50, single-round pseudovirus neutralization [7] [µg/mL] | IC50, single-round pseudovirus neutralization [8] [µg/mL] | IC50, single-round pseudovirus neutralization [9] [µg/mL] | IC50, single-round pseudovirus neutralization [10] [µg/mL] | IC50, single-round pseudovirus neutralization [11] [µg/mL] | IC50, single-round pseudovirus neutralization [12] [µg/mL] | IC50, single-round pseudovirus neutralization [13] [µg/mL] | IC50 [14] [µg/mL] | IC50 [15] [µg/mL] | IC50 [16] [µg/mL] | IC50 [17] [µg/mL] | IC50, pseudovirus neutralization [18] [µg/mL] | IC50 (µg/ml), pseudovirus neutralization [19] [µg/mL] | IC50 (µg/ml), pseudovirus neutralization [20] [µg/mL] | other results
5329_C19 (PGT-136) (antibody) | > 50 | > 50 | 2.33 | > 50 | > 50 | > 50 | > 50 | > 50 | > 50 | > 50 | > 50 | > 50 | > 50 | > 50 | 11.1 | > 50 | > 50 | > 50 | – | – | –
2G12 (antibody) | – | – | – | – | – | – | – | – | – | – | – | – | – | – | – | – | – | – | > 50 | > 50 | IC50 (µg/ml), pseudovirus neutralization [21]: > 50 µg/mL; IC90 (pseudovirus neutralization) [22]: > 50 µg/mL; IC50 (µg/ml), pseudovirus neutralization [23]: > 50 µg/mL; IC50 (µg/ml), pseudovirus neutralization [24]: 4.39 µg/mL; IC50 (µg/ml), pseudovirus neutralization [25]: > 50 µg/mL; IC50 [26]: > 50 µg/mL; IC50 [27]: > 50 µg/mL
5136_H01 (PGT-131) (antibody) | 0.056 | 0.048 | 0.168 | > 50 | 1.1 | > 50 | > 50 | > 50 | 0.035 | > 50 | > 50 | 1.04 | > 50 | > 50 | 1.01 | 0.148 | > 50 | > 50 | – | – | Fold IC50 increase relative to wild-type [28]: 2.4 fold; Fold IC50 increase relative to wild-type [29]: 1.1 fold; Fold IC50 increase relative to wild-type [30]: 1.6 fold
1443_C16 (PG16) (TCN-116) (antibody) | – | – | – | – | – | – | – | – | – | – | – | – | – | – | – | – | – | – | 0.11 | 0.43 | IC50 (µg/ml), pseudovirus neutralization [21]: 0.007 µg/mL; IC90 (pseudovirus neutralization) [22]: > 50 µg/mL; IC50 (µg/ml), pseudovirus neutralization [23]: 4.33 µg/mL; IC50 (µg/ml), pseudovirus neutralization [24]: > 50 µg/mL; IC50 (µg/ml), pseudovirus neutralization [25]: > 50 µg/mL; IC50 [26]: 28.3 µg/mL; IC50 [27]: > 50 µg/mL
4E10 (antibody) | – | – | – | – | – | – | – | – | – | – | – | – | – | – | – | – | – | – | 4.87 | 4.94 | IC50 (µg/ml), pseudovirus neutralization [21]: 4.55 µg/mL; IC90 (pseudovirus neutralization) [22]: > 50 µg/mL; IC50 (µg/ml), pseudovirus neutralization [23]: 0.85 µg/mL; IC50 (µg/ml), pseudovirus neutralization [24]: 12.7 µg/mL; IC50 (µg/ml), pseudovirus neutralization [25]: 15.1 µg/mL; IC50 [26]: 18.2 µg/mL; IC50 [27]: 2.1 µg/mL
5345_I01 (PGT-137) (antibody) | > 50 | > 50 | 0.005 | > 50 | > 50 | > 50 | > 50 | > 50 | > 50 | > 50 | > 50 | > 50 | > 50 | > 50 | 1.98 | 15.1 | > 50 | > 50 | – | – | –
1495_C14 (PGC14) (antibody) | – | – | – | – | – | – | – | – | – | – | – | – | – | – | – | – | – | – | > 50 | > 50 | IC50 (µg/ml), pseudovirus neutralization [21]: > 50 µg/mL; IC50 (µg/ml), pseudovirus neutralization [23]: > 50 µg/mL; IC50 (µg/ml), pseudovirus neutralization [24]: > 50 µg/mL; IC50 (µg/ml), pseudovirus neutralization [25]: > 50 µg/mL; IC50 [26]: > 50 µg/mL; IC50 [27]: > 50 µg/mL
5343_B08 (PGT-135) (antibody) | > 50 | 3.67 | 0.067 | > 50 | > 50 | > 50 | > 50 | > 50 | > 50 | > 50 | > 50 | > 50 | > 50 | > 50 | 0.104 | 0.039 | > 50 | > 50 | – | – | Fold IC50 increase relative to wild-type [28]: 4 fold; Fold IC50 increase relative to wild-type [29]: 0.3 fold; Fold IC50 increase relative to wild-type [30]: 0.9 fold
b12 (antibody) | – | – | – | – | – | – | – | – | – | – | – | – | – | – | – | – | – | – | > 50 | > 50 | IC50 (µg/ml), pseudovirus neutralization [21]: > 50 µg/mL; IC90 (pseudovirus neutralization) [22]: > 50 µg/mL; IC50 (µg/ml), pseudovirus neutralization [23]: 25.9 µg/mL; IC50 (µg/ml), pseudovirus neutralization [24]: 0.73 µg/mL; IC50 (µg/ml), pseudovirus neutralization [25]: > 50 µg/mL; IC50 [26]: > 50 µg/mL; IC50 [27]: > 50 µg/mL
5147_N06 (PGT-130) (antibody) | 0.031 | 0.061 | 0.039 | > 50 | 1.4 | 10.7 | > 50 | > 50 | 0.308 | 2.43 | > 50 | 0.54 | 9.46 | > 50 | 0.344 | 0.049 | > 50 | 0.825 | – | – | IC50 (ug/ml), neutralizing activity [22]: > 10 µg/mL; Fold IC50 increase relative to wild-type [28]: 3.2 fold; Fold IC50 increase relative to wild-type [29]: 1.2 fold; Fold IC50 increase relative to wild-type [30]: 1.2 fold; IC50 (ug/ml), neutralizing activity [31]: 0.0173 µg/mL; IC50 (ug/ml), neutralizing activity [32]: > 10 µg/mL
5114_A19 (PGT-128) (antibody) | 0.011 | 0.006 | 0.005 | > 50 | 0.011 | 0.016 | > 50 | > 50 | 0.005 | > 50 | > 50 | 0.037 | 0.021 | > 50 | 0.196 | 0.008 | > 50 | > 50 | – | – | Fold IC50 increase relative to wild-type [28]: 2.1 fold; Fold IC50 increase relative to wild-type [29]: 1 fold; Fold IC50 increase relative to wild-type [30]: 2.7 fold
2F5 (antibody) | – | – | – | – | – | – | – | – | – | – | – | – | – | – | – | – | – | – | 4.16 | 3.81 | IC50 (µg/ml), pseudovirus neutralization [21]: > 50 µg/mL; IC90 (pseudovirus neutralization) [22]: 33.4 µg/mL; IC50 (µg/ml), pseudovirus neutralization [23]: 0.29 µg/mL; IC50 (µg/ml), pseudovirus neutralization [24]: 5.42 µg/mL; IC50 (µg/ml), pseudovirus neutralization [25]: > 50 µg/mL; IC50 [26]: 44.7 µg/mL; IC50 [27]: 18.4 µg/mL
